This note sets out measurements from patent US20080085863A1 (WISCONSIN ALUMNI RESEARCH FOUNDATION, published 2008).

Data set [1] addresses T1, recombinant mutant α2-macroglobulin with the native bait region replaced by sequences flanking the human probiglycan BMP-1 cleavage site (b-α2M).
T1 chain: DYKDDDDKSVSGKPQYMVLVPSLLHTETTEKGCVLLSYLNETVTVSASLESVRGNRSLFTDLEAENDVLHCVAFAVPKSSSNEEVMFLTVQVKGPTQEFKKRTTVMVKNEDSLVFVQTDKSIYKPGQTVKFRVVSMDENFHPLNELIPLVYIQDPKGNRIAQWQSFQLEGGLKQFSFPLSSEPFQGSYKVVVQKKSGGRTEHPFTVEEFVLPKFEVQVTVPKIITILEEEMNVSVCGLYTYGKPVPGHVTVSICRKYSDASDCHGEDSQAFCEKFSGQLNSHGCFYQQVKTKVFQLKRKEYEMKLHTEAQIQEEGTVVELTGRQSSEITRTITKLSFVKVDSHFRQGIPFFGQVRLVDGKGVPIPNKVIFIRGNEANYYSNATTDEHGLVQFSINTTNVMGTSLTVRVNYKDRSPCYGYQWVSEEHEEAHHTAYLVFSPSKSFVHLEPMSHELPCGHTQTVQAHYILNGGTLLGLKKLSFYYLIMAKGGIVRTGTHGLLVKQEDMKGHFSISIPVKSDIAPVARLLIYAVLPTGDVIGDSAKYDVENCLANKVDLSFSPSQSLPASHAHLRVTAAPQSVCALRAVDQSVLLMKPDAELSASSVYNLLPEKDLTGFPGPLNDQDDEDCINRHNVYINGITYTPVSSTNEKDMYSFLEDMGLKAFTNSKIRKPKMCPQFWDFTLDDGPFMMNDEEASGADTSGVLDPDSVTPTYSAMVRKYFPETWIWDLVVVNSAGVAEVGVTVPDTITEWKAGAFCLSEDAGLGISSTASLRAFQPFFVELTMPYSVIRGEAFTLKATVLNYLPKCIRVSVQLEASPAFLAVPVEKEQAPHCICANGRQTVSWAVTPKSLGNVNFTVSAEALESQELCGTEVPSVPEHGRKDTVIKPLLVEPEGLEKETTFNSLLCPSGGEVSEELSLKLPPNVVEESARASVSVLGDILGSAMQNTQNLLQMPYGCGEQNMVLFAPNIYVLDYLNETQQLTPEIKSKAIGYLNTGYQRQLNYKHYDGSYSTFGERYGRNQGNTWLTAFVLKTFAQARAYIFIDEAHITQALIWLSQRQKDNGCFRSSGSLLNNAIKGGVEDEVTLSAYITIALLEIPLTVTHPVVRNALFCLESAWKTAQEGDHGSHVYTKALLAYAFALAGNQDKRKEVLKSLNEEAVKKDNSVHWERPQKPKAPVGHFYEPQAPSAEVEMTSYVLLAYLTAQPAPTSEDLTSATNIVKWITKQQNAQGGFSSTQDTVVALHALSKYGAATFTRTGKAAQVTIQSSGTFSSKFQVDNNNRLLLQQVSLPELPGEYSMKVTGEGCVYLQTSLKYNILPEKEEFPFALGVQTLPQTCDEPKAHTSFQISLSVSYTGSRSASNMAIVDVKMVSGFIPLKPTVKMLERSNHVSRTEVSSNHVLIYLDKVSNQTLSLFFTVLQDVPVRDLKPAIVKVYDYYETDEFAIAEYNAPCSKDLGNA

Data set [2] deals with T2, methylamine-treated human α2-macroglobulin.
T2 chain: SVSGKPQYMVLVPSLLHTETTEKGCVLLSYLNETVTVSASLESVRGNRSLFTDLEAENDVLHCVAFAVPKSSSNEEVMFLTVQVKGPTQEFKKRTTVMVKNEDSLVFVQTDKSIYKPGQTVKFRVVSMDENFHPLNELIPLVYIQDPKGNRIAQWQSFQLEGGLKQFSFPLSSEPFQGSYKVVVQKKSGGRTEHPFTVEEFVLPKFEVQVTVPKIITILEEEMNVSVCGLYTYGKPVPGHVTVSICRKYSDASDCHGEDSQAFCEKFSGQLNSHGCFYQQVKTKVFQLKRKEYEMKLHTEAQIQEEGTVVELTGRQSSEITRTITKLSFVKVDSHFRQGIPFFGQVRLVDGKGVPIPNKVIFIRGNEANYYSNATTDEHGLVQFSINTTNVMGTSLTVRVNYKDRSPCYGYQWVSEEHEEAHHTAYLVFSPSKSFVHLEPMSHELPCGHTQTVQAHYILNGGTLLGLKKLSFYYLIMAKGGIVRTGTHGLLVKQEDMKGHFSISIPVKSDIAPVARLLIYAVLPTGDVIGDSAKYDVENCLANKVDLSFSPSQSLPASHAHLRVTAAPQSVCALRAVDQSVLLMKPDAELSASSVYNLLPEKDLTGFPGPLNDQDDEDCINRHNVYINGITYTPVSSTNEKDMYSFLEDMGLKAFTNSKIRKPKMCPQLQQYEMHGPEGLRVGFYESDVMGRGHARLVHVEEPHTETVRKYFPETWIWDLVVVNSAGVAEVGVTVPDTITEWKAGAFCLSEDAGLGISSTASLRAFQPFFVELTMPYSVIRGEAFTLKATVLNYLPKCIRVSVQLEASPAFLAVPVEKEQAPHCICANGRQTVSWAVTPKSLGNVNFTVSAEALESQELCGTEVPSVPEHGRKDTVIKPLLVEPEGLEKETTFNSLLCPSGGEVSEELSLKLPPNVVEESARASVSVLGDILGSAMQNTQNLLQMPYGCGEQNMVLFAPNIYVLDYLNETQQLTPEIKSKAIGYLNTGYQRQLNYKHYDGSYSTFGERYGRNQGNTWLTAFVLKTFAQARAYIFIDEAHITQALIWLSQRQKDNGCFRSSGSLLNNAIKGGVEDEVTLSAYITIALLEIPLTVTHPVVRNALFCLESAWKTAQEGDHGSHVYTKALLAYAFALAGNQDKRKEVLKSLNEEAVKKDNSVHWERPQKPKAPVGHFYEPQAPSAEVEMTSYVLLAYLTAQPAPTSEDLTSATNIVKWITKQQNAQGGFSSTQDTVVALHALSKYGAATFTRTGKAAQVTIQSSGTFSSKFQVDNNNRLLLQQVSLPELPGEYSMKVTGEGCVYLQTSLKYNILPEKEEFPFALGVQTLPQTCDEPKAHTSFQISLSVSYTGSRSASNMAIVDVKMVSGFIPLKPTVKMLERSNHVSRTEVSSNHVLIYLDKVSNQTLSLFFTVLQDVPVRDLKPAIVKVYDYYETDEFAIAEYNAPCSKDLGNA

Data set [3] deals with T1, recombinant mutant α2-macroglobulin …. As to the kind of experiment: 2 hour co-incubation of 40 nM 35S-BMP-1 with 40 nM α2M, SDS-PAGE autofluorogram.
Data set [4] addresses T3, human α2-macroglobulin from plasma (Sigma-Aldrich).
T3 chain: T2 chain
The data set is described as above.

The target in data set [5] is T4, recombinant wild type α2-macroglobulin (FLAG-tagged).
T4 chain: T2 chain
The data set is described as above.

B1: Flag-tagged recombinant bone morphogenetic protein-1 (BMP-1) (protein)
chain: AATSRPERVWPDGVIPFVIGGNFTGSQRAVFRQAMRHWEKHTCVTFLERTDEDSYIVFTYRPCGCCSYVGRRGGGPQAISIGKNCDKFGIVVHELGHVVGFWHEHTRPDRDRHVSIVRENIQPGQEYNFLKMEPQEVESLGETYDFDSIMHYARNTFSRGIFLDTIVPKYEVNGVKPPIGQRTRLSKGDIAQARKLYKCPACGETLQDSTGNFSSPEYPNGYSAHMHCVWRISVTPGEKIILNFTSLDLYRSRLCWYDYVEVRDGFWRKAPLRGRFCGSKLPEPIVSTDSRLWVEFRSSSNWVGKGFFAVYEAICGGDVKKDYGHIQSPNYPDDYRPSKVCIWRIQVSEGFHVGLTFQSFEIERHDSCAYDYLEVRDGHSESSTLIGRYCGYEKPDDIKSTSSRLWLKFVSDGSINKAGFAVNFFKEVDECSRPNRGGCEQRCLNTLGSYKCSCDPGYELAPDKRRCEAACGGFLTKLNGSITSPGWPKEYPPNKNCIWQLVAPTQYRISLQFDFFETEGNDVCKYDFVEVRSGLTADSKLHGKFCGSEKPEVITSQYNNMRVEFKSDNTVSKKGFKAHFFSEKRPALQPPRGRPHQLKFRVQKRNRTPQ
B1: the “cleavage of α2M by BMP-1 (Western blot, time course)” value in data set [1] is recorded as “b-α2M is cleaved by BMP-1 more readily than recombinant wild-type α2M (rα2M)”. In addition, the “cleavage of α2M by BMP-1 (SDS-PAGE)” value in data set [2] was “BMP-1 was unable to cleave methylamine-treated α2M”. The “percent of BMP-1 incorporated into complexes” value in data set [3] is on record as 42% of sample; in data set [4], 28% of sample; in data set [5], 12% of sample.
